In publication PMC11825483:

Experiment: hepatic Ceacam1 mRNA and protein levels
Conditions: glycan changed form; control: Slc35c1 flox/flox mice

B1: CEACAM1 (Ceacam1): Slc35c1 cKO (protein)
parent chain: MELASAHLHKGQVPWGGLLLTASLLASWSPATTAEVTIEAVPPQVAEDNNVLLLVHNLPLALGAFAWYKGNTTAIDKEIARFVPNSNMNFTGQAYSGREIIYSNGSLLFQMITMKDMGVYTLDMTDENYRRTQATVRFHVHQPVTQPFLQVTNTTVKELDSVTLTCLSNDIGANIQWLFNSQSLQLTERMTLSQNNSILRIDPIKREDAGEYQCEISNPVSVRRSNSIKLDIIFDPTQGGLSDGAIAGIVIGVVAGVALIAGLAYFLYSRKSGGGSDQRDLTEHKPSTSNHNLAPSDNSPNKVDDVAYTVLNFNSQQPNRPTSAPSSPRATETVYSEVKKK
- expression_or_secretion: no change
